Residue numbers refer to the chain shown, from its start. In names and notes the source's numbering stands.
T1: FcγRIIaR (human, UniProt P12318)
T1 construct: recombinant receptor protein with 6xHis and GST tags; also called R131 FcγRIIa
T1 sequence (receptor, looked up): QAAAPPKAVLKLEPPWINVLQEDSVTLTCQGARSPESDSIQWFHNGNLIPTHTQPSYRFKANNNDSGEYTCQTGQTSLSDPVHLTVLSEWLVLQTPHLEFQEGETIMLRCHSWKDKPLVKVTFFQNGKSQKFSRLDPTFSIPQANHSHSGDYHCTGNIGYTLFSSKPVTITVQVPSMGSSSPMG

T2: human FcγRIIb receptor protein (R&D Systems) (human, UniProt P31994 46-217)
T2 construct: Analyte injected over antibodies captured on a protein A/G chip (Biacore); also called CD32b
T2 sequence (looked up): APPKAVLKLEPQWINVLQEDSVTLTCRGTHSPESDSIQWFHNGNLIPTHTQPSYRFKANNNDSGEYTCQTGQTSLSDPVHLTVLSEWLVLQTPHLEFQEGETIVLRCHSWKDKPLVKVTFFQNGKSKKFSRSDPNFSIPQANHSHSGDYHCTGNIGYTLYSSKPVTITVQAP

B1: L234Q (antibody, human IgG1, kappa)
heavy: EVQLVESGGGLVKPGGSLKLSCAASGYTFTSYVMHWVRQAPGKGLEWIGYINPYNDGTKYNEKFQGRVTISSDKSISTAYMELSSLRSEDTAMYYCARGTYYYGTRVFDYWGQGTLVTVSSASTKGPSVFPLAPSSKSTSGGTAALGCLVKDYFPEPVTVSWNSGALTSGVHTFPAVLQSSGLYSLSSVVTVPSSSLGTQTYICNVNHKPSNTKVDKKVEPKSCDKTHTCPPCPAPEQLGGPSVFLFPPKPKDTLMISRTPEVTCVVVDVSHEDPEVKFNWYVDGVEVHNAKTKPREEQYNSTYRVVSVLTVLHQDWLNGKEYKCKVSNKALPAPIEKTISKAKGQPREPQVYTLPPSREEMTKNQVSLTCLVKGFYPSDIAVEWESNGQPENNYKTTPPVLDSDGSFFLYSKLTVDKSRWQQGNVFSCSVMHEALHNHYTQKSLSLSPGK
light: DIVMTQSPATLSLSPGERATLSCRSSKSLQNVNGNTYLYWFQQKPGQSPQLLIYRMSNLNSGVPDRFSGSGSGTEFTLTISSLEPEDFAVYYCMQHLEYPITFGAGTKLEIKRTVAAPSVFIFPPSDEQLKSGTASVVCLLNNFYPREAKVQWKVDNALQSGNSQESVTEQDSKDSTYSLSSTLTLSKADYEKHKVYACEVTHQGLSSPVTKSFNRGEC
notes: HuAM4G7 IgG1 Fc variant
B2: G237V (antibody, human IgG1, kappa)
heavy: not shown
light: B1 light
notes: HuAM4G7 IgG1 Fc variant
B3: A327Q (antibody, human IgG1, kappa)
heavy: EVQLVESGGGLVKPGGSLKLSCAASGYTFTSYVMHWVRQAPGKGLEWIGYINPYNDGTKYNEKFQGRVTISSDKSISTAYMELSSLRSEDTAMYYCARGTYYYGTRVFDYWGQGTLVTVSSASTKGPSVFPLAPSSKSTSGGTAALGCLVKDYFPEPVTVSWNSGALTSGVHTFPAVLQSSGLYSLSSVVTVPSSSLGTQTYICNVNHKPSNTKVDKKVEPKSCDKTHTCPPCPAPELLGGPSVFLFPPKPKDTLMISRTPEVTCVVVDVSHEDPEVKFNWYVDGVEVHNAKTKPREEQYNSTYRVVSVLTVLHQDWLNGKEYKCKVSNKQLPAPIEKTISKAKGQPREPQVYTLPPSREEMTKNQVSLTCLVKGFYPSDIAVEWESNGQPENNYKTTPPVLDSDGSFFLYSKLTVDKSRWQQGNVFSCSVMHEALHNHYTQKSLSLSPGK
light: B1 light
notes: HuAM4G7 IgG1 Fc variant
B4: S267E/A327D (antibody, human IgG1, kappa)
heavy: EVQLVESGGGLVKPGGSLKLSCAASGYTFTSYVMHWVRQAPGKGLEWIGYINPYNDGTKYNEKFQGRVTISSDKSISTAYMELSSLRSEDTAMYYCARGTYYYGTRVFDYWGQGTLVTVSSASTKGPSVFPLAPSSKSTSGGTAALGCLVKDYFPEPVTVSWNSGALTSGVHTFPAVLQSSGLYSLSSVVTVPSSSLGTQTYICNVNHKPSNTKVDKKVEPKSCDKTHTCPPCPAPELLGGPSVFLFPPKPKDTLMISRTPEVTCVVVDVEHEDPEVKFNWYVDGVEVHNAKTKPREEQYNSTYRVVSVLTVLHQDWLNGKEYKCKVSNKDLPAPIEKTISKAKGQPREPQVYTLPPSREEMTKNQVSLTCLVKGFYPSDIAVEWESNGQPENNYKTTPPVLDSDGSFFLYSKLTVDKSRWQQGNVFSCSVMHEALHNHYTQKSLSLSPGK
light: B1 light
notes: HuAM4G7 IgG1 Fc variant
B5: L234P (antibody, human IgG1, kappa)
heavy: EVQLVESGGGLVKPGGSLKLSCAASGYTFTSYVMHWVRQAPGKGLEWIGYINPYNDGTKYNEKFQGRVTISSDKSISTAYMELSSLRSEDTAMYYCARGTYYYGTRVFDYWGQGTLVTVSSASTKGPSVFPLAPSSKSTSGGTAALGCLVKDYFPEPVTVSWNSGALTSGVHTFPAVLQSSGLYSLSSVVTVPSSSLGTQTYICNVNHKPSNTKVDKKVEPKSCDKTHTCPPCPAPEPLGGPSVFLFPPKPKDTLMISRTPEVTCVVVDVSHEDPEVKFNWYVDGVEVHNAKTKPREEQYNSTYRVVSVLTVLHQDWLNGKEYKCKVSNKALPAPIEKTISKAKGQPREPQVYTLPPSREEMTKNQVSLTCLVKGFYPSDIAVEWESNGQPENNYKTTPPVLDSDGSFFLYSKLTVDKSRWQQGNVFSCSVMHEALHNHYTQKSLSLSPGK
light: B1 light
notes: HuAM4G7 IgG1 Fc variant
B6: G237S (antibody, human IgG1, kappa)
heavy: not shown
light: B1 light
notes: HuAM4G7 IgG1 Fc variant
B7: L234V (antibody, human IgG1, kappa)
heavy: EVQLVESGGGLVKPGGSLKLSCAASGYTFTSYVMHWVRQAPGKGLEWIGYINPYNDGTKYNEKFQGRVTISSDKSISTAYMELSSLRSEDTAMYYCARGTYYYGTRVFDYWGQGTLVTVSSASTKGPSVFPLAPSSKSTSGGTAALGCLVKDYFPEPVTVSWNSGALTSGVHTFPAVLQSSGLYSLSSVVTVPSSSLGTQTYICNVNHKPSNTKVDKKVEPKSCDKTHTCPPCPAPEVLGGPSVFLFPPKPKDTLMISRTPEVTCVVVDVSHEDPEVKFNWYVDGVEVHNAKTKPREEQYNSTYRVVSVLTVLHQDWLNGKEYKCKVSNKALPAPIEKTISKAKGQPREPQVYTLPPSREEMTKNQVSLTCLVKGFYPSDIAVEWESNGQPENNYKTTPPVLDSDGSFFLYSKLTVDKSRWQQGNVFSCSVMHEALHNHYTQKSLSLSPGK
light: B1 light
notes: HuAM4G7 IgG1 Fc variant
B8: H268N (antibody, human IgG1, kappa)
heavy: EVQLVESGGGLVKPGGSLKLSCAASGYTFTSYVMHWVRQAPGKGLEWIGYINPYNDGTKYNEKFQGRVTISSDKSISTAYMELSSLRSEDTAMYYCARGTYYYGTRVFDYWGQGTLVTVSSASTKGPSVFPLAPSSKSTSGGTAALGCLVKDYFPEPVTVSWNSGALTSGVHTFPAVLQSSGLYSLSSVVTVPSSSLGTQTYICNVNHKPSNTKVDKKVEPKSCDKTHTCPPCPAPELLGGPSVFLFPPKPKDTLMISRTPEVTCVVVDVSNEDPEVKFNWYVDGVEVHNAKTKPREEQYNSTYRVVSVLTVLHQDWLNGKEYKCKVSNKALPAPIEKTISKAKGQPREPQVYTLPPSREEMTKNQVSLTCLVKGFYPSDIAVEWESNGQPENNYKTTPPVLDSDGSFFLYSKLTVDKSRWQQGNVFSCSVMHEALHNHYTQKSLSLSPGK
light: B1 light
notes: HuAM4G7 IgG1 Fc variant
B9: D265E (antibody, human IgG1, kappa)
heavy: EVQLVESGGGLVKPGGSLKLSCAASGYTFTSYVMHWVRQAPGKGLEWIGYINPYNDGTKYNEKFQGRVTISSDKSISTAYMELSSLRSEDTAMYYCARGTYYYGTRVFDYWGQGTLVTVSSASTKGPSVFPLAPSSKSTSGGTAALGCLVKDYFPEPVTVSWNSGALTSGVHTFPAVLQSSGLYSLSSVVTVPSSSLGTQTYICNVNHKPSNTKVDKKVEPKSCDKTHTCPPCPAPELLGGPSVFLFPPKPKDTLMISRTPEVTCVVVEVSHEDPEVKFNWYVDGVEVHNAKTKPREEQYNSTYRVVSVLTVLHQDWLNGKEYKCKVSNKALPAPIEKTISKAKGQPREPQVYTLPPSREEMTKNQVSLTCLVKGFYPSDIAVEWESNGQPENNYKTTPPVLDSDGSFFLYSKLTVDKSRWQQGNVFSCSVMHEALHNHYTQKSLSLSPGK
light: B1 light
notes: HuAM4G7 IgG1 Fc variant
B10: G236M (antibody, human IgG1, kappa)
heavy: not shown
light: B1 light
notes: HuAM4G7 IgG1 Fc variant
B11: L234W/S239E/S267E (antibody, human IgG1, kappa)
heavy: EVQLVESGGGLVKPGGSLKLSCAASGYTFTSYVMHWVRQAPGKGLEWIGYINPYNDGTKYNEKFQGRVTISSDKSISTAYMELSSLRSEDTAMYYCARGTYYYGTRVFDYWGQGTLVTVSSASTKGPSVFPLAPSSKSTSGGTAALGCLVKDYFPEPVTVSWNSGALTSGVHTFPAVLQSSGLYSLSSVVTVPSSSLGTQTYICNVNHKPSNTKVDKKVEPKSCDKTHTCPPCPAPEWLGGPEVFLFPPKPKDTLMISRTPEVTCVVVDVEHEDPEVKFNWYVDGVEVHNAKTKPREEQYNSTYRVVSVLTVLHQDWLNGKEYKCKVSNKALPAPIEKTISKAKGQPREPQVYTLPPSREEMTKNQVSLTCLVKGFYPSDIAVEWESNGQPENNYKTTPPVLDSDGSFFLYSKLTVDKSRWQQGNVFSCSVMHEALHNHYTQKSLSLSPGK
light: B1 light
notes: HuAM4G7 IgG1 Fc variant
B12: L235T/S267E (antibody, human IgG1, kappa)
heavy: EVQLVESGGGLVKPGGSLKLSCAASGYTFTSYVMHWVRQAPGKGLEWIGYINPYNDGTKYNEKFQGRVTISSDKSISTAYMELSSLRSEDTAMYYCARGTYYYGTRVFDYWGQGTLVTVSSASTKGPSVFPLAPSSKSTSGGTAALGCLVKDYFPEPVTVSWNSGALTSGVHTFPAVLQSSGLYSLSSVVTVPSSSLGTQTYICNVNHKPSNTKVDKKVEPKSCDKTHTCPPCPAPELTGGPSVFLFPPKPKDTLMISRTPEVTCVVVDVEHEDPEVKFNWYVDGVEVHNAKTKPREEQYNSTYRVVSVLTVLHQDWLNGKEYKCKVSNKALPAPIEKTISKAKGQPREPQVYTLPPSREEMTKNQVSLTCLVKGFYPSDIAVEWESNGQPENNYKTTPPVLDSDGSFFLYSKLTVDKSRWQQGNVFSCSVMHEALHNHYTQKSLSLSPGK
light: B1 light
notes: HuAM4G7 IgG1 Fc variant
B13: S267E/L328H (antibody, human IgG1, kappa)
heavy: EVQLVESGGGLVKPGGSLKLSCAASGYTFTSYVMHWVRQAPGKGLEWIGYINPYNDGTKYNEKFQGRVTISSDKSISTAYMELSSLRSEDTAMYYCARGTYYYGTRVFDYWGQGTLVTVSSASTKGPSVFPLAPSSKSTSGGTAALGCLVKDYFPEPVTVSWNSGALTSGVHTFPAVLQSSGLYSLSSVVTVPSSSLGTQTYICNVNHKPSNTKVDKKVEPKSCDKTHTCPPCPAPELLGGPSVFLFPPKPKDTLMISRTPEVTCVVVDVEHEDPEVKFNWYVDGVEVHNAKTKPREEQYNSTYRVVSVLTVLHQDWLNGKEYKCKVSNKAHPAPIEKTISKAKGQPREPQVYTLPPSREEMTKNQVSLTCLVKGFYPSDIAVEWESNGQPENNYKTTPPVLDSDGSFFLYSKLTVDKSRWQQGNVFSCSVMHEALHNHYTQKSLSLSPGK
light: B1 light
notes: HuAM4G7 IgG1 Fc variant
B14: L235Q (antibody, human IgG1, kappa)
heavy: not shown
light: B1 light
notes: HuAM4G7 IgG1 Fc variant
B15: L234W/G236D/S239E/S267E (antibody, human IgG1, kappa)
heavy: B11 heavy with G240D
light: B1 light
notes: HuAM4G7 IgG1 Fc variant
B16: L234Y (antibody, human IgG1, kappa)
heavy: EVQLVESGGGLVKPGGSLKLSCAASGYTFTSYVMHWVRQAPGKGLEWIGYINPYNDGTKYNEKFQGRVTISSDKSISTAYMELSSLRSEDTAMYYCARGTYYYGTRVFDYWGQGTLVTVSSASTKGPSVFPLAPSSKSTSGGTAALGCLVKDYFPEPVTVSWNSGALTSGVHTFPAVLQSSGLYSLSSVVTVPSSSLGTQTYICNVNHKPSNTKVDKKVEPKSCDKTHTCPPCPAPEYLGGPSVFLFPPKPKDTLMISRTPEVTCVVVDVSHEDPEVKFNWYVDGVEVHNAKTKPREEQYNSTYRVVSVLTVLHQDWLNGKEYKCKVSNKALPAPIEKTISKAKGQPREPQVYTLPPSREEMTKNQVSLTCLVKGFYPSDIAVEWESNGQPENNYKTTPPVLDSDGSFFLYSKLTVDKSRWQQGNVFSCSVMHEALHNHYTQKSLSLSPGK
light: B1 light
notes: HuAM4G7 IgG1 Fc variant
B17: G236H (antibody, human IgG1, kappa)
heavy: not shown
light: B1 light
notes: HuAM4G7 IgG1 Fc variant
B18: G236W (antibody, human IgG1, kappa)
heavy: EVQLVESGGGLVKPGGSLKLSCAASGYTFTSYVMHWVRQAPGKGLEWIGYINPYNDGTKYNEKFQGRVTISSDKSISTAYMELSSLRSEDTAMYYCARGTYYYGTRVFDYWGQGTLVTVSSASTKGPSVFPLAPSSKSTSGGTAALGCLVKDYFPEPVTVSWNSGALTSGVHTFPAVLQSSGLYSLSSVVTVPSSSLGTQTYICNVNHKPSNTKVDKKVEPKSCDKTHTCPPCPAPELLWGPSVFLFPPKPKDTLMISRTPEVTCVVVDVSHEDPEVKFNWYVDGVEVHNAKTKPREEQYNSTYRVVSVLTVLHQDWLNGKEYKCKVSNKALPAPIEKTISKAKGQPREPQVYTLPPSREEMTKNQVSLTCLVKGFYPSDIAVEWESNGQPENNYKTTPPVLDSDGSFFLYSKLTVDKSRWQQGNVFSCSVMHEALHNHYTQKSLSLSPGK
light: B1 light
notes: HuAM4G7 IgG1 Fc variant
B19: G236Q (antibody, human IgG1, kappa)
heavy: not shown
light: B1 light
notes: HuAM4G7 IgG1 Fc variant
B20: V266D (antibody, human IgG1, kappa)
heavy: not shown
light: B1 light
notes: HuAM4G7 IgG1 Fc variant

How the values were obtained:
Assay in all cases: SPR (Biacore)
[1] = biological target: T1, FcγRIIaR
[2] = biological target: T2, human FcγRIIb receptor protein (R&D …)
[3] = biological target: T3, human FcγRI receptor protein (R&D Systems) (human, UniProt P12314 16-288)
T3 construct: also called CD64

Binder | Fold FcγRIIaR [1] [fold] | Fold FcγRIIb [2] [fold] | Fold FcγRI [3] [fold] | binding result [2]
B1 | 0.0372 | 0.147 |  | 
B2 | 0.0342 | 0.147 |  | 
B3 | 0.634 | 0.011 |  | 
B4 | 16.7 | 21.2 | 1.66 | 
B5 | 0.0141 | 0.0644 |  | 
B6 | 0.081 | 0.147 |  | 
B7 | 0.134 | 0.456 |  | 
B8 | 1.79 | 1.17 |  | 
B9 | 0.307 | 0.417 |  | 
B10 | 0.0859 | 0.147 |  | 
B11 | 98.5 | 42.3 |  | 
B12 | 3.06 | 2.37 |  | 
B13 | 4.64 | 5.17 |  | 
B14 | 2.04 |  |  | 
B15 | 5.69 | 11.4 |  | 
B16 | 0.0511 | 0.0237 |  | 
B17 | 0.135 |  |  | no binding
B18 | 0.0859 | 0.147 |  | 
B19 | 0.0859 | 0.147 |  | 
B20 | 0.704 | 0.147 |  | 
